Reference: patent US7238711
Several values for one entry are separate records, joined by “and”; a condition that tells them apart may be missing. Equal values may be shown once. No end group written: not given here.

Columns and labels:
[1] = target: Duffy Antigen Receptor for Chemokines (DARC) (human) (UniProt Q16570); assay: estimated ka for red blood cells divided by average inhibitory ED50
[2] = target: T1, Duffy Antigen Receptor for Chemokines (DARC) (human), Q16570; assay: as above
T1 chain: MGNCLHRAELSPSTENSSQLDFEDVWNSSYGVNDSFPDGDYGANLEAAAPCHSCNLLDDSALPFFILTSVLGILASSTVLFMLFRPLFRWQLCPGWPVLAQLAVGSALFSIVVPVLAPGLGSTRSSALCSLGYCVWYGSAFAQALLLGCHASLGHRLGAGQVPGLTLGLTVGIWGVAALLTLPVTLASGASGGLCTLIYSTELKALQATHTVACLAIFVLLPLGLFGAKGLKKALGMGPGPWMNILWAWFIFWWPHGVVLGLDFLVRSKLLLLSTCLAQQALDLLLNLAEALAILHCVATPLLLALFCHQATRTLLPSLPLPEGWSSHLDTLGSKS

[3] = target: CCR5 (human), P51681; assay: cell-based or functional assay
CCR5 (human), P51681, sequence (P51681 whole entry): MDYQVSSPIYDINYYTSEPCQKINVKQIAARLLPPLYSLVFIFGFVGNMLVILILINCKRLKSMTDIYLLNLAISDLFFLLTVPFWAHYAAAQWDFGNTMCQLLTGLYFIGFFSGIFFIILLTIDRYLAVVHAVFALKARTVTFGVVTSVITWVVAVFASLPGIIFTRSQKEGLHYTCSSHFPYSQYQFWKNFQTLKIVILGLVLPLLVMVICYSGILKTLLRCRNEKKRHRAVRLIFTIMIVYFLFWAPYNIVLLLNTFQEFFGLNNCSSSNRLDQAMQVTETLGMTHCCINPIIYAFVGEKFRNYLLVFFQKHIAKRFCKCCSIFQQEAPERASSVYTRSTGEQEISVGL

[4] = target: chemokine receptors on THP-1 cells; assay: receptors on THP-1 cells against DARC
[5] = target: Duffy Antigen Receptor for Chemokines (DARC) (human) (UniProt Q16570); assay: DARC binding, Table 18
[6] = target: chemokine receptors
[7] = target: Duffy Antigen Receptor for Chemokines (DARC) (human) (UniProt Q16570); assay: Duffy binding
[8] = target: Duffy Antigen Receptor for Chemokines (DARC) (human) (UniProt Q16570); assay: Duffy binding, against the LFL peptide
[9] = target: CXCR4 (human) (UniProt P61073); assay: not stated (printed as affinity constant)
[10] = target: CCR5 (human) (UniProt P51681); assay: not stated (printed as affinity constant)
CCR5 (human), sequence (P51681 whole entry): as above

[11] = target: T2, CXCR1 (human), P25024; assay: biotin-labeled peptide at 10 µM on CHO transformants, 125I-streptavidin
T2 chain: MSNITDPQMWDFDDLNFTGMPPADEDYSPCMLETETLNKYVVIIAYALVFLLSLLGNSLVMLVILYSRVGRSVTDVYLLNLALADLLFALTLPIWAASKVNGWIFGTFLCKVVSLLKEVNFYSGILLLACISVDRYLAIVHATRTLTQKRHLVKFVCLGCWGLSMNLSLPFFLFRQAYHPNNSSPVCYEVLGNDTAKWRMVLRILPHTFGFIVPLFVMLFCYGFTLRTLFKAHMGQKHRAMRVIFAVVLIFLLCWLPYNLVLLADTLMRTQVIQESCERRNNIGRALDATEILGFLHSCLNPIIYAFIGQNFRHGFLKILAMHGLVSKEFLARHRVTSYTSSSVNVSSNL

[12] = target: T3, CXCR2 (human), P25025; assay: as above
T3 chain: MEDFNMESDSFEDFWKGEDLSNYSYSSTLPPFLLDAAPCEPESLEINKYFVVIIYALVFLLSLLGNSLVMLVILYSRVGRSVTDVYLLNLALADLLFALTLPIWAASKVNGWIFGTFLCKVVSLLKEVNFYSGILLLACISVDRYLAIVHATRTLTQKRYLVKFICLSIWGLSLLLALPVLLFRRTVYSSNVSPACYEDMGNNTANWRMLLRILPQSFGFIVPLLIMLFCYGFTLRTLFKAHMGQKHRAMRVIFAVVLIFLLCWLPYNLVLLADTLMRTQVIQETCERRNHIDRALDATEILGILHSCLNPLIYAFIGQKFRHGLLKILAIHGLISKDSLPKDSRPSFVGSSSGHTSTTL

[13] = target: cell surface molecule on THP-1 cells; assay: binding of biotinylated peptide 3 to THP-1 cells, labeled streptavidin
[14] = target: T4, CCR3 (human), P51677; assay: biotin-labeled peptide at 10 µM on HOS transformants, 125I-streptavidin
T4 chain: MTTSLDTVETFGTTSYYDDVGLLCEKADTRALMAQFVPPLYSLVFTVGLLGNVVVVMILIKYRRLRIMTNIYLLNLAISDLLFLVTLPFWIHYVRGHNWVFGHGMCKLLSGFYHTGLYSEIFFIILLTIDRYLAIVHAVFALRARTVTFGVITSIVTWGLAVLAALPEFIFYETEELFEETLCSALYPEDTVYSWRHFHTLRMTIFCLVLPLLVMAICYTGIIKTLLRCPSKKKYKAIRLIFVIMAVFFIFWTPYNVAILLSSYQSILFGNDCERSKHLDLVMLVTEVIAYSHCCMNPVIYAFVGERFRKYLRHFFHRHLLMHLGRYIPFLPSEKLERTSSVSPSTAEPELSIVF

[15] = target: T5, CCR4 (human), P51679; assay: as above
T5 chain: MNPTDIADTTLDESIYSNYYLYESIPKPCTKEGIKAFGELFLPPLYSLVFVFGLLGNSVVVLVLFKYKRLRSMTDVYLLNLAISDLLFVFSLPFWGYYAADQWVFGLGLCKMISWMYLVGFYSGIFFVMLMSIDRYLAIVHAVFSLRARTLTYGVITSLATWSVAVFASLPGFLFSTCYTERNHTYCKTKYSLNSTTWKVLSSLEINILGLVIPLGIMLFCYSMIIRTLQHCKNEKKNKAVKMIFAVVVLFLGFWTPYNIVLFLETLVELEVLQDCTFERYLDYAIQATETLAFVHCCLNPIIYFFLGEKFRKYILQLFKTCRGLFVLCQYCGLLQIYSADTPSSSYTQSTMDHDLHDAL

[16] = target: T6, CXCR4 (human), P61073; assay: as above
T6 chain: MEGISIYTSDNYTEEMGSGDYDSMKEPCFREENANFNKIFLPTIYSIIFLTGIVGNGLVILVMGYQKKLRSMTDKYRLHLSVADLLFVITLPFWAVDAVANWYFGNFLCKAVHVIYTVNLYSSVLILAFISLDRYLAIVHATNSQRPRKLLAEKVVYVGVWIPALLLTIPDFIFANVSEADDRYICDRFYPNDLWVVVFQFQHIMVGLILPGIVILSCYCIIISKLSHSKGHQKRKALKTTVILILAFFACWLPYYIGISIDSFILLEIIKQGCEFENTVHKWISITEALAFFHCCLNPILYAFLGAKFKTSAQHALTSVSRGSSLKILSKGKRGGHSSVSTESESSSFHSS

[17] = target: CCR2 (human), P41597; assay: as above
CCR2 (human), P41597, sequence (P41597 whole entry): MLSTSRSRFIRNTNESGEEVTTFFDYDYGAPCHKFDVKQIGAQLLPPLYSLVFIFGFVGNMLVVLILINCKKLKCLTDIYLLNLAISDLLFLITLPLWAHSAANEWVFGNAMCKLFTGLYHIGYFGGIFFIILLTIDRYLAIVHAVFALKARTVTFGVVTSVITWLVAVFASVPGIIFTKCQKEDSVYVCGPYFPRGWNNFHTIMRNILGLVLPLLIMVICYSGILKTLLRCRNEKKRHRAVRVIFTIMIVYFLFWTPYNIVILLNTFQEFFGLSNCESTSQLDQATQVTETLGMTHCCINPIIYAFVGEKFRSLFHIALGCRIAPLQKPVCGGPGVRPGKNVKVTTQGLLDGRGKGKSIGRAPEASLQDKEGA

[18] = target: CCR5 (human), P51681; assay: as above
[19] = target: T7, CCR1 (human), P32246; assay: as above
T7 chain: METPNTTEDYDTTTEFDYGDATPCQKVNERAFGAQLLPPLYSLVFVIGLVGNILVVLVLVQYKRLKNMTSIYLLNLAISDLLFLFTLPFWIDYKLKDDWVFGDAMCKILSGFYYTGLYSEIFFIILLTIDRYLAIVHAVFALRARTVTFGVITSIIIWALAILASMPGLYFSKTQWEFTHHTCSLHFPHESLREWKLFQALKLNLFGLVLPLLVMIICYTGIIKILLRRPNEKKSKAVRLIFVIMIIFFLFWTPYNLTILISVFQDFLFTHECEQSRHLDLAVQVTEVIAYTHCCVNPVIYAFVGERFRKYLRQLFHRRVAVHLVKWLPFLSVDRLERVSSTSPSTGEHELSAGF

[20] = target: chemokine receptors on THP-1 cells; assay: binding to THP-1 cells
[21] = target: T1, Duffy Antigen Receptor for Chemokines …; assay: DARC binding
[22] = target: MCP-1 (human), P13500; assay: cell-based or functional assay
MCP-1 (human), P13500, sequence (P13500 24-99 limits assumed): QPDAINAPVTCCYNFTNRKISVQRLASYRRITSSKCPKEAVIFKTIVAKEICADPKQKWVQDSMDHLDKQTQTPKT

[23] = target: chemokine receptors on the surface of Jurkat cells; assay: binding to Jurkat cells
[24] = target: chemokine receptors on THP-1 cells; assay: binding to THP-1 cells (given as association constant)
[25] = target: Duffy Antigen Receptor for Chemokines (DARC) (human) (UniProt Q16570); assay: DARC binding, red blood cells (given as association constant)
[26] = target: CCR5 (human), P51681; assay: 125I-RANTES Scatchard, parental HOS line (the filing suggests background CCR5); details: remark: other sources report otherwise
[27] = target: CCR5 (human), P51681; assay: 125I-RANTES Scatchard, HOS CCR5 line; details: remark: other sources report otherwise
[28] = target: CCR5 (human), P51681; assay: 12-point Scatchard, HOS CCR5 line; details: remark: other sources report otherwise
[29] = target: CCR5 (human), P51681; assay: 12-point Scatchard, parental HOS line (the filing suggests background CCR5); details: remark: other sources report otherwise
[30] = target: CCR5 (human), P51681; assay: 12-point Scatchard, 0.03 nM 125I-RANTES with cold RANTES, 4° C., 2 hours; details: remark: other sources report otherwise
[31] = target: T1, Duffy Antigen Receptor for Chemokines …; assay: ka for red blood cells divided by ka for THP-1 cells

## CQVWKQKPDAC (not fully specified (some residues, bridges); cysteine pairing not given here) [CRD-Cys13pep3[3-12]]
[1]
  Duffy selectivity: 8.82

## EICADPKQKWVQ (not fully specified) [peptide 3(1-12)[MCP-1]]
[2]; remark: other sources report otherwise
  Duffy selectivity: 1
[3]
  decrease in HIV infection of THP-1 cells, immunofluorescence staining: 83%

## EICLDPKQKWIQ (not fully specified) [Leu4Ile11 peptide 3(1-12)[MCP-1]]
[2]
  Duffy selectivity: 37.8
[4]
  fold selectivity over DARC: > 20 fold

## VAEKPCKSSTIRRYS (not fully specified (some residues)) [LRD peptide 2(1-15)[MCP-1]]
[5]
  DARC binding: 18 µM
[6]
  IC50: 3 µM
[7]
  Kd: 25 µM
[8]
  fold decrease in Duffy binding against LFL: 100 fold
[9]
  Kd: < 0.1 µM
[10]
  Kd: < 0.1 µM

## CLDPKQKWIQC (not fully specified (N-terminus); cysteine pairing not given here) [N-terminal biotin conjugate of the sequence n'-…-c']
[11]
  Kd: > 10 µM
[12]
  Kd: > 10 µM
[13]
  binding sites per cell (receptors/cell): 1000
[14]
  Kd: > 10 µM
[15]
  Kd: > 10 µM
[16]
  Kd: > 10 µM
[17]
  Kd: > 10 µM
[18]
  Kd: > 10 µM
[19]
  Kd: > 10 µM

## DYFETSSQCSKPGV [Pep2(1-14)[MIP1α]]
[20]
  binding sites per cell (sites per cell): 150000
[6]
  IC50: > 100 µM

## HLKILNTPNCALQIV [Pep2(1-15)[SDF1]]
[6]
  IC50: 35 µM

## SYRRITSSKSPKEAV (not fully specified) [Ser10 variant of peptide 2(1-15)[MCP-1]]
[21]
  DARC binding: 20 to 100 µM

## AQPDAINAPVTCC (not fully specified; cysteine pairing not given here) [Peptide 1[MCP-1]]
[22]
  inhibition of MCP-1 induced THP-1 migration, peptide with the chemokine in the lower compartment: 48%

## EICADPSEEWVQ (not fully specified) [Ser7Glu8Glu9 peptide 3(1-12)[MCP-1]]
[2]
  Duffy selectivity: 0.59

## EICADPSQKWVQ (not fully specified) [Ser7 peptide 3(1-12)[MCP-1]]
[2]
  Duffy selectivity: 2

## SYRRITSSKCPKEAV [peptide 2(1-15)[MCP-1]]
[23]
  binding sites per cell: 55000 sites/cell
[20]
  binding sites per cell: 130000 sites/cell
[6]
  IC50: 0.4 µM

## CADPKQKWVQ (not fully specified) [Pep3(3-12)[MCP-1]]
[2]
  Duffy selectivity: 1.21

## CQIWKQKPDLC (not fully specified (some residues, bridges); cysteine pairing not given here) [CRD-Cys13Leu4Ile11 peptide 3(3-12)[MCP-1]]
[24]
  Kd: 0.1 to 0.5 µM
[1]
  Duffy selectivity: > 100
[25]
  Kd: 90 µM
[20]
  binding sites per cell (sites per cell): 150000

B1: RANTES, P13501 24-91 (ligand, UniProt P13501 24-91, looked up)
chain: SPYSSDTTPCCFAYIARPLPRAHIKEYFYTSGKCSNPAVVFVTRKNRQVCANPEKKWVREYINSLEMS
[26]
  binding sites per cell (sites per cell): 80000
[27]
  binding sites per cell (sites per cell): 200000 and 400000
[28]
  binding sites per cell (sites per cell): 200000
[29]
  binding sites per cell (sites per cell): 100000
[30]
  Kd: 0.001 µM

## ELRVIESGPHCANTEI (not fully specified) [Pep2(1-16)[IL8]]
[31]
  Duffy selectivity: < 1
